How the values were obtained:
[1] = target: T1, GDF11 (Homo sapiens, UniProt O95390); experiment: Biacore-based binding assay (surface plasmon resonance), GDF11; conditions: SPR 37° C.; compared to ActRIIB-G1Fc / ActRIIB-Fc homodimer
T1 sequence (O95390 299-407): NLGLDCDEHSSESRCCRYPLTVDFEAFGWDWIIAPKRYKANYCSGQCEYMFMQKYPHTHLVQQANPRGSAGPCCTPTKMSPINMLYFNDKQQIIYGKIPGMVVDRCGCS
Procedure: (§1) To determine ligand binding profiles of variant ActRIIB-Fc homodimers, a Biacore™-based binding assay was used to compare ligand binding kinetics of certain variant ActRIIB-Fc polypeptides. ActRIIB-Fc polypeptides to be tested were independently captured onto the system using an anti-Fc antibody. Ligands were then injected and allowed to flow over the captured receptor protein. ActRIIB-G1Fc was used as the control polypeptide.
as §1, with “protein.” for “protein. ActRIIB-G1Fc was used as the control polypeptide.”
(§2) A Biacore™-based binding assay was used to compare the ligand binding kinetics of an ActRIIB-Fc:ActRIIB(L79E)-Fc heterodimer with those of unmodified ActRIIB-Fc homodimer. Fusion proteins were captured onto the system using an anti-Fc antibody. Ligands were then injected and allowed to flow over the captured receptor protein at 37° C. Results are summarized in the table below, in which ligand off-rates (kd) most indicative of effective ligand traps are denoted in bold.

[2] = target: T2, Activin B (Homo sapiens, UniProt P09529); experiment: Biacore-based binding assay (surface plasmon resonance), activin B; conditions: SPR 37° C.; compared to ActRIIB-G1Fc / ActRIIB-Fc homodimer
T2 sequence (P09529 293-407): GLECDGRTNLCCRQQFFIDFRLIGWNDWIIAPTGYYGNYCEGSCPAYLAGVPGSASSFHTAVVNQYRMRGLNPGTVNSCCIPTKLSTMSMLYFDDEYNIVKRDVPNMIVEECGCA
Procedure: as §1, §2

[3] = target: T3, GDF8 (Homo sapiens, UniProt O14793); experiment: Biacore-based binding assay (surface plasmon resonance), GDF8; conditions: SPR 37° C.; compared to ActRIIB-G1Fc / ActRIIB-Fc homodimer
T3 sequence (O14793 267-375): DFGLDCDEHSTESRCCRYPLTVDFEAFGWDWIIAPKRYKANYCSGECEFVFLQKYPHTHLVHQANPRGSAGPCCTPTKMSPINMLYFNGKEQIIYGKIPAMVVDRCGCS
Procedure: as §1, §2

[4] = target: T4, BMP9 (Homo sapiens, UniProt Q9UK05); experiment: Biacore-based binding assay (surface plasmon resonance), BMP9; conditions: SPR 37° C.; for binding to BMP9 compared to unmodified ActRIIB-Fc (in words): compared to ActRIIB-G1Fc / ActRIIB-Fc homodimer; for reduction in affinity for BMP9 compared with reduction in affinity for GDF11 or activin A: FIG. 9, compared to Fc fusion with unmodified ActRIIB extracellular domain
T4 sequence (Q9UK05 320-429): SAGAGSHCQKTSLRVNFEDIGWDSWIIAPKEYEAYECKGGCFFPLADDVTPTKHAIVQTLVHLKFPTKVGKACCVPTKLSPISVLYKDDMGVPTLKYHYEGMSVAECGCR
Procedure: as §1
as §1, with “protein.” for “protein. ActRIIB-G1Fc was used as the control polypeptide.”
as §2

[5] = target: T1, GDF11; experiment: A204 cell-based pGL3(CAGA)12 reporter gene assay, signaling by GDF11; conditions: A204 reporter gene assay
Text: (§3) To determine activity of variant ActRIIB-Fc polypeptides, an A204 cell-based assay was used to compare effects among variant ActRIIB-Fc polypeptides on signaling by activin A, activin B, GDF8, GDF11, BMP9, and BMP10, in comparison to ActRIIB-G1Fc. In brief, this assay uses a human A204 rhabdomyosarcoma cell line (ATCC®: HTB-82™) derived from muscle and the reporter vector pGL3(CAGA)12 (Dennler et al., 1998, EMBO 17: 3091-3100) as well as a Renilla reporter plasmid (pRLCMV) to control for transfection efficiency. The CAGA12 motif is present in TGF-β responsive genes (e.g., PAI-1 gene), so this vector is of general use for ligands that can signal through Smad2/3, including activin A. GDF11, and BMP9.
(§4) On day 1. A204 cells were transferred into one or more 48-well plates. On day 2, these cells were transfected with 10 μg pGL3(CAGA)12 or pGL3(CAGA)12(10 μg)+pRLCMV (1 pg) and Fugene. On day 3, ligands diluted in medium containing 0.1% BSA were preincubated with ActRIIB-Fc polypeptides for 1 hr before addition to cells. Approximately six hour later, the cells were rinsed with PBS and lysed. Cell lysates were analyzed in a luciferase assay to determine the extent of Smad activation.
(§5) This assay was used to screen variant ActRIIB-Fc polypeptides for inhibitory effects on cell signaling by activin A, activin B. GDF8, GDF11. BMP9, and BMP10. Potencies of homodimeric Fc fusion polypeptides incorporating amino acid substitutions in the human ActRIIB extracellular domain were compared with that of an Fc fusion polypeptide comprising unmodified human ActRIIB extracellular domain, ActRIIB-G1Fc. For some variants tested, it was not possible to calculate an accurate IC50, but signs of inhibition in the slope of the curves were detectable. For these variants, an estimate was included of the order of magnitude of the relative IC50, i.e. >10 nM or >100 nM instead of a definite number. Such data points are indicated by a (*) in Table 3 below. For some variants tested, there was no detectable inhibition in the slope of the curves over the concentration range tested, which is indicated by “ND” in Table 4.
as §3, with “A,” for “A, activin B, GDF8,”, “GDF11,” for “GDF11, BMP9,”, “and BMP9.” for “and BMP10, in comparison to ActRIIB-G1Fc.”, “(Dennler el” for “(Dennler et”, “activin A,” for “activin A.”
as §4, with “1, A-204” for “1. A204”, “μg)” for “pg)”
(§6) This assay was used to screen variant ActRIIB-Fc polypeptides for inhibitory effects on cell signaling by activin A, GDF11, and BMP9. Potencies of homodimeric Fc fusion polypeptides incorporating amino acid substitutions in the human ActRIIB extracellular domain were compared with that of an Fc fusion polypeptide comprising unmodified human ActRIIB extracellular domain.

[6] = target: T4, BMP9; experiment: A204 cell-based pGL3(CAGA)12 reporter gene assay, signaling by BMP9; conditions: A204 reporter gene assay
Text: as §3, §4, §5
as §3, with “A,” for “A, activin B, GDF8,”, “GDF11,” for “GDF11, BMP9,”, “and BMP9.” for “and BMP10, in comparison to ActRIIB-G1Fc.”, “(Dennler el” for “(Dennler et”, “activin A,” for “activin A.”
as §4, with “1, A-204” for “1. A204”, “μg)” for “pg)”
as §6

[7] = target: T5, Activin A (Homo sapiens, UniProt P08476); experiment: A204 cell-based pGL3(CAGA)12 reporter gene assay, signaling by activin A; conditions: A204 reporter gene assay
T5 sequence (P08476 311-426): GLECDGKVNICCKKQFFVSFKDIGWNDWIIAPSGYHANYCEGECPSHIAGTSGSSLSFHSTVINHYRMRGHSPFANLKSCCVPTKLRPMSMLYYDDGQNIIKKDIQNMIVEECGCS
Text: as §3, §4, §5
as §3, with “A,” for “A, activin B, GDF8,”, “GDF11,” for “GDF11, BMP9,”, “and BMP9.” for “and BMP10, in comparison to ActRIIB-G1Fc.”, “(Dennler el” for “(Dennler et”, “activin A,” for “activin A.”
as §4, with “1, A-204” for “1. A204”, “μg)” for “pg)”
as §6

[8] = target: T6, GDF11 (UniProt O95390 299-407); experiment: cell-based or functional assay
T6 construct: also called Growth and differentiation factor-11; BMP11
T6 sequence (looked up): T1 sequence (O95390 299-407)

[9] = target: T7, BMP9 (UniProt Q9UK05 320-429); experiment: cell-based or functional assay
T7 sequence (looked up): T4 sequence (Q9UK05 320-429)

Row | affinity for activin B compared to unmodified ActRIIB-Fc (in words) [2] | binding to BMP9 compared to unmodified ActRIIB-Fc (in words) [4] | inhibition of BMP9 compared to fusion polypeptide with unmodified ActRIIB extracellular domain (in words) [6] | IC50 (ng/ml), A204 CAGA12 luciferase reporter assay [8] | IC50 (ng/ml), A204 CAGA12 luciferase reporter assay [9] | Substance | GDF11 binding compared to unmodified ActRIIB-Fc (in words) [1] | GDF8 binding compared to unmodified ActRIIB-Fc (in words) [3] | inhibition of GDF11 compared to fusion polypeptide with unmodified ActRIIB extracellular domain (in words) [5] | selectivity of antagonism (activin A and GDF11 over BMP9) compared to unmodified ActRIIB-Fc [6] | inhibition of activin A compared to fusion polypeptide with unmodified ActRIIB extracellular domain (in words) [7] | reduction in affinity for BMP9 compared with reduction in affinity for GDF11 or activin A [4] | also measured
1 | relatively high affinity for activin B | decrease in binding to BMP9 | – | – | – | F82I-N83R: homodimeric ActRIIB-G1Fc fusion with F82I and N83R substitutions; mature SEQ ID NO: 278 | significant decrease in GDF8 and GDF11 binding | significant decrease in GDF8 and GDF11 binding | – | – | – | – | –
2 | – | – | – | 389 ng/mL | 40000 ng/mL | F82W/N83A (homodimeric ActRIIB-Fc construct) (Fc fusion) | – | – | – | – | – | – | –
3 | – | – | less potent inhibition of BMP9 | – | – | K55A: homodimeric ActRIIB-G1Fc fusion with K55A substitution; mature SEQ ID NO: 33 | – | – | essentially undiminished inhibition of activin A and GDF11 | more selective antagonists of activin A and GDF11 | essentially undiminished inhibition of activin A and GDF11 | reduce ActRIIB binding affinity for BMP9 more than they reduce ActRIIB affinity for activin A or GDF11 | reduction in affinity for BMP9 compared with reduction in affinity for GDF11 or activin A ([4]; listed as ActRIIB(K55A)-Fc): greater reduction in their affinity for BMP9 than for GDF11
4 | – | – | – | 45 ng/mL | 165 ng/mL | K74R (homodimeric ActRIIB-Fc construct) (Fc fusion) | – | – | – | – | – | – | –

The next lines start with the substance.

Row | Substance | affinity for activin B compared to unmodified ActRIIB-Fc (in words) [2] | binding to BMP9 compared to unmodified ActRIIB-Fc (in words) [4] | inhibition of BMP9 compared to fusion polypeptide with unmodified ActRIIB extracellular domain (in words) [6] | IC50 (ng/ml), A204 CAGA12 luciferase reporter assay [8] | IC50 (ng/ml), A204 CAGA12 luciferase reporter assay [9] | GDF11 binding compared to unmodified ActRIIB-Fc (in words) [1] | GDF8 binding compared to unmodified ActRIIB-Fc (in words) [3] | inhibition of GDF11 compared to fusion polypeptide with unmodified ActRIIB extracellular domain (in words) [5] | selectivity of antagonism (activin A and GDF11 over BMP9) compared to unmodified ActRIIB-Fc [6] | inhibition of activin A compared to fusion polypeptide with unmodified ActRIIB extracellular domain (in words) [7] | reduction in affinity for BMP9 compared with reduction in affinity for GDF11 or activin A [4] | also measured
5 | F82K-N83R: homodimeric ActRIIB-G1Fc fusion with F82K and N83R substitutions; mature SEQ ID NO: 332 | relatively high affinity for activin B | decrease in binding to BMP9 | – | – | – | significant decrease in GDF8 and GDF11 binding | significant decrease in GDF8 and GDF11 binding | – | – | – | – | –
6 | F82K: homodimeric ActRIIB-G1Fc fusion with F82K substitution; mature SEQ ID NO: 42 | – | – | less potent inhibition of BMP9 | – | – | – | – | essentially undiminished inhibition of activin A and GDF11 | more selective antagonists of activin A and GDF11 | essentially undiminished inhibition of activin A and GDF11 | reduce ActRIIB binding affinity for BMP9 more than they reduce ActRIIB affinity for activin A or GDF11 | reduction in affinity for BMP9 compared with reduction in affinity for GDF11 or activin A ([4]; listed as ActRIIB(F82K)-Fc): greater reduction in their affinity for BMP9 than for GDF11
7 | F82T-N83R: homodimeric ActRIIB-G1Fc fusion with F82T and N83R substitutions; mature SEQ ID NO: 335 | relatively high affinity for activin B | decrease in binding to BMP9 | – | – | – | significant decrease in GDF8 and GDF11 binding | significant decrease in GDF8 and GDF11 binding | – | – | – | – | –
8 | K55E: homodimeric ActRIIB-G1Fc fusion with K55E substitution; mature SEQ ID NO: 36 | – | – | less potent inhibition of BMP9 | – | – | – | – | essentially undiminished inhibition of activin A and GDF11 | more selective antagonists of activin A and GDF11 | essentially undiminished inhibition of activin A and GDF11 | reduce ActRIIB binding affinity for BMP9 more than they reduce ActRIIB affinity for activin A or GDF11 | reduction in affinity for BMP9 compared with reduction in affinity for GDF11 or activin A ([4]; listed as ActRIIB(K55E)-Fc): greater reduction in their affinity for BMP9 than for GDF11
9 | R40A (homodimeric ActRIIB-Fc construct) (Fc fusion) | – | – | – | 591 ng/mL | 1210 ng/mL | – | – | – | – | – | – | –
